This passage reports Kd results from CN114031685A.

For test [1], the target named is SARS-CoV-2 Delta株 S-ECD蛋白 (SARS-CoV-2 Delta株 (B.1.617.2)).
For test [2], the target named is SARS-CoV-2 Omicron株 S-ECD蛋白 (SARS-CoV-2 Omicron株 (B.1.1.529)).
Test [3] addresses SARS-CoV-2 Gamma株 S-ECD蛋白 (SARS-CoV-2 Gamma株 (P.1)).
The target of test [4] is SARS-CoV-2 Beta株 S-ECD蛋白 (SARS-CoV-2 Beta株 (B.1.351)).
Test [5] concerns the target SARS-CoV-2 Alpha株 S-ECD蛋白 (SARS-CoV-2 Alpha株 (B.1.1.7)).

B1: 抗SARS-CoV-2全人源单克隆抗体ZW2G10 (antibody, V domains shown)
VH: EVQLVESGGGLVQPGRSLRLSCAASGFTFDDYAMHWVRQAPGKGLEWVSGITWNSGTIGYADSVKGRFIISRDNAKNSLHLQMNSLRVEDTALYYCAKDNSDYSGYYWELENYGMDVWGQGTTVTVSS
VL: QSVLTQPPSVSGAPGQRVTISCTGSSSNIGAGYDVHWYQQLPGTAPKLLIYDNNNRPSGVPDRFSGSKSGTSASLAITGLQAEDEADYYCQSFDSSLSGVVFGGGTRLTVLR
As usually defined, the Kd is the constant that tells how readily two partners part at equilibrium. Consider B1, for which the equilibrium dissociation constant (Kd) in test [1] was 5450 pM; in test [2] it was 765 pM; in test [3], 615 pM; in test [4], 518 pM; in test [5] it was 166 pM.
